Source: the RNAGym collection of RNA variant scans (doi:10.7554/elife.80360)

B1: Hairpin Ribozyme (parent)
chain: GUCCUCUUUCACGUGCGCGUGAAAGAGAGAAGUGAACCAGAGAAACACACGUUGUGGUAUAUUACCUGGUA

Variants of: B1
Test: self-cleavage, relative activity (ratio to wild type); higher = more cleavage; co-transcriptional

Variant	self-cleavage
GUCCUCUUUCACGUGCGCGUGAAAGAGAGAAGUGAACCAGAGAAACACACGUUGUGGUAUAUUGCCGGGUA [A64G U67G]	0.159
GUCCUCUUUCACGUGCGCGUGAAAGAGAGAAGUGAACCAGAGAAACACACGUUGUGGUAUAUUGCCCGGUA [A64G U67C]	0.122
GUCCUCUUUCACGUGCGCGUGAAAGAGAGAAGUGAACCAGAGAAACACACGUUGUGGUAUAUUAGCUGAUA [C65G G69A]	0.138
GUCCUCUUUCACGUGCGCGUGAAAGAGAGAAGUGAACCAGAGAAACACACGUUGUGGUAUAUUGCCUGGUC [A64G A71C]	0.76
GUCCUCUUUCACGUGCGCGUGAAAGAGAGAAGUGAACCAGAGAAACACACGUUGUGGUAUAUUGCCUGGUG [A64G A71G]	0.554
GUCCUCUUUCACGUGCGCGUGAAAGAGAGAAGUGAACCAGAGAAACACACGUUGUGGUAUAUUGCCUGGUU [A64G A71U]	0.287
GUCCUCUUUCACGUGCGCGUGAAAGAGAGAAGUGAACCAGAGAAACACACGUUGUGGUAUAUUCCCUGCUA [A64C G69C]	0.129
GUCCUCUUUCACGUGCGCGUGAAAGAGAGAAGUGAACCAGAGAAACACACGUUGUGGUAUAUAUCCUGGUA [U63A A64U]	0.198
GUCCUCUUUCACGUGCGCGUGAAAGAGAGAAGUGAACCAGAGAAACACACGUUGUGGUAUAGUACCUGGUU [U62G A71U]	0.367
GUCCUCUUUCACGUGCGCGUGAAAGAGAGAAGUGAACCAGAGAAACACACGUUGUGGUAUAUUUCCUGGUG [A64U A71G]	0.311
GUCCUCUUUCACGUGCGCGUGAAAGAGAGAAGUGAACCAGAGAAACACACGUUGUGGUAUAUUUCCUGCUA [A64U G69C]	0.259
GUCCUCUUUCACGUGCGCGUGAAAGAGAGAAGUGAACCAGAGAAACACACGUUGUGGUAUAUUCUCUGGUA [A64C C65U]	0.223
GUCCUCUUUCACGUGCGCGUGAAAGAGAGAAGUGAACCAGAGAAACACACGUUGUGGUAUAUUCACUGGUA [A64C C65A]	0.186
GUCCUCUUUCACGUGCGCGUGAAAGAGAGAAGUGAACCAGAGAAACACACGUUGUGGUAUAUUUCCUAGUA [A64U G68A]	0.173
GUCCUCUUUCACGUGCGCGUGAAAGAGAGAAGUGAACCAGAGAAACACACGUUGUGGUAUAUAACGUGGUA [U63A C66G]	0.0954
GUCCUCUUUCACGUGCGCGUGAAAGAGAGAAGUGAACCAGAGAAACACACGUUGUGGUAUAUAACAUGGUA [U63A C66A]	0.118
GUCCUCUUUCACGUGCGCGUGAAAGAGAGAAGUGAACCAGAGAAACACACGUUGUGGUAUAUUCCCUGGUC [A64C A71C]	0.28
GUCCUCUUUCACGUGCGCGUGAAAGAGAGAAGUGAACCAGAGAAACACACGUUGUGGUAUAGCACCUGGUA [U62G U63C]	0.243
GUCCUCUUUCACGUGCGCGUGAAAGAGAGAAGUGAACCAGAGAAACACACGUUGUGGUAUAGAACCUGGUA [U62G U63A]	0.0488

Variant	self-cleavage
GUCCUCUUUCACGUGCGCGUGAAAGAGAGAAGUGAACCAGAGAAACACACGUUGUGGUAUAGGACCUGGUA [U62G U63G]	0.191
GUCCUCUUUCACGUGCGCGUGAAAGAGAGAAGUGAACCAGAGAAACACACGUUGUGGUAUAUCUCCUGGUA [U63C A64U]	0.185
GUCCUCUUUCACGUGCGCGUGAAAGAGAGAAGUGAACCAGAGAAACACACGUUGUGGUAUAUUAGUUGGUA [C65G C66U]	0.429
GUCCUCUUUCACGUGCGCGUGAAAGAGAGAAGUGAACCAGAGAAACACACGUUGUGGUAUAUUAGGUGGUA [C65G C66G]	0.178
GUCCUCUUUCACGUGCGCGUGAAAGAGAGAAGUGAACCAGAGAAACACACGUUGUGGUAUAUUUCCAGGUA [A64U U67A]	0.206
GUCCUCUUUCACGUGCGCGUGAAAGAGAGAAGUGAACCAGAGAAACACACGUUGUGGUAUAUUAACGGGUA [C65A U67G]	0.197
GUCCUCUUUCACGUGCGCGUGAAAGAGAGAAGUGAACCAGAGAAACACACGUUGUGGUAUAUUCCCCGGUA [A64C U67C]	0.151
GUCCUCUUUCACGUGCGCGUGAAAGAGAGAAGUGAACCAGAGAAACACACGUUGUGGUAUAUGAUCUGGUA [U63G C65U]	0.11
GUCCUCUUUCACGUGCGCGUGAAAGAGAGAAGUGAACCAGAGAAACACACGUUGUGGUAUAUUAAAUGGUA [C65A C66A]	0.15
GUCCUCUUUCACGUGCGCGUGAAAGAGAGAAGUGAACCAGAGAAACACACGUUGUGGUAUAGUAGCUGGUA [U62G C65G]	0.223
GUCCUCUUUCACGUGCGCGUGAAAGAGAGAAGUGAACCAGAGAAACACACGUUGUGGUAUAGUAACUGGUA [U62G C65A]	0.157
GUCCUCUUUCACGUGCGCGUGAAAGAGAGAAGUGAACCAGAGAAACACACGUUGUGGUAUAUUAUCUGUUA [C65U G69U]	0.279
GUCCUCUUUCACGUGCGCGUGAAAGAGAGAAGUGAACCAGAGAAACACACGUUGUGGUAUAGUACUUGGUA [U62G C66U]	0.12
GUCCUCUUUCACGUGCGCGUGAAAGAGAGAAGUGAACCAGAGAAACACACGUUGUGGUAUAUUACAUCGUA [C66A G68C]	0.161
GUCCUCUUUCACGUGCGCGUGAAAGAGAGAAGUGAACCAGAGAAACACACGUUGUGGUAUAUUACAUUGUA [C66A G68U]	0.105
GUCCUCUUUCACGUGCGCGUGAAAGAGAGAAGUGAACCAGAGAAACACACGUUGUGGUAUAUAACCUAGUA [U63A G68A]	0.276
GUCCUCUUUCACGUGCGCGUGAAAGAGAGAAGUGAACCAGAGAAACACACGUUGUGGUAUAUAACCUCGUA [U63A G68C]	0.225
GUCCUCUUUCACGUGCGCGUGAAAGAGAGAAGUGAACCAGAGAAACACACGUUGUGGUAUAUAACCUUGUA [U63A G68U]	0.225
GUCCUCUUUCACGUGCGCGUGAAAGAGAGAAGUGAACCAGAGAAACACACGUUGUGGUAUAUUGCCUAGUA [A64G G68A]	0.226
